Laboratory results: patent publication US20140213513A1 (Sanofi, priority 2012, published 2014)
*1 amine or outer side, *2 acyl side, *3 side chain or, on linkers, in order; H or OH if unused. Where no end group is shown, it is not given here. Side-chain parts run from the residue outwards. [ ]: non-standard residue; d: D form. The star is where a group is joined. γGlu = O=C(O)[C@H](CCC(=O)[*:2])N[*:1]; Stearoyl = CCCCCCCCCCCCCCCCCC(=O)*; Palmitoyl = CCCCCCCCCCCCCCCC(=O)*; Aib = CC(C)(N)C(=O)O

T1: human GIP receptor (human, UniProt P48546 22-466)
T1 sequence (looked up): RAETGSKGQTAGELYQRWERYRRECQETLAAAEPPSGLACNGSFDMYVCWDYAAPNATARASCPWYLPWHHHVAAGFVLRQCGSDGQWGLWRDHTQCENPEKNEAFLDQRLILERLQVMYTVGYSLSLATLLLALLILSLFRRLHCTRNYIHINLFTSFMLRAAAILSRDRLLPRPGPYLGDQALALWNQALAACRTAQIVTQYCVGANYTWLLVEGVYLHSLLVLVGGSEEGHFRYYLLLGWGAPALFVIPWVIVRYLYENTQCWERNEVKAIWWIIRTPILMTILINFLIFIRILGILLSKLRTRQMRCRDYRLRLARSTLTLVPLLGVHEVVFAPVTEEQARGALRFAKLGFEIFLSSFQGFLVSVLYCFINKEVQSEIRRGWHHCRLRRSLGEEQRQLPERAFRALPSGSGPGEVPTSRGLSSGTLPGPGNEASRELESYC


What was measured:
Assay in all cases: cell-based or functional assay
[1] = molecular target: human GLP-1 receptor (human, UniProt P43220 24-463)
[2] = molecular target: T1, human GIP receptor
[3] = molecular target: human glucagon receptor (human, UniProt P47871 26-477)
Sequence of human glucagon receptor (P47871 26-477): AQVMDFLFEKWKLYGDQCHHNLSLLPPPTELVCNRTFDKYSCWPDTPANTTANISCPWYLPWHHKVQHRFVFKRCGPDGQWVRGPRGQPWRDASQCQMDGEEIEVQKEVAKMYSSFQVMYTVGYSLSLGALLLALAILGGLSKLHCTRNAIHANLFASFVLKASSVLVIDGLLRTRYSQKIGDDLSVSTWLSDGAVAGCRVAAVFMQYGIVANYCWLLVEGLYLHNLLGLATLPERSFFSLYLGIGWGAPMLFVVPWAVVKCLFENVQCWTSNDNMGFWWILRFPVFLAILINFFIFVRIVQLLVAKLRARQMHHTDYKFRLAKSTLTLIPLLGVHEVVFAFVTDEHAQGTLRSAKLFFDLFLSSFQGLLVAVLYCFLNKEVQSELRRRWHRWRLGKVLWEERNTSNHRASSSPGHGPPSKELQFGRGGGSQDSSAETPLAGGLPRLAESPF

Row | Binder | EC50 hGLP-1 R [1] | EC50 hGIP R [2] | EC50 hGLUC R [3]
1 | Y[Aib]HGTFTSDLSIQK([γGlu-Stearoyl])EKRAA[Aib]EFIEWLKNTGPSSGAPPPS-NH2 (N-terminus assumed; SMILES CCCCCCCCCCCCCCCCCC(=O)N[C@@H](CCC(=O)NCCCC[C@H](NC(=O)[C@H](CCC(N)=O)NC(=O)[C@@H](NC(=O)[C@H](CO)NC(=O)[C@H](CC(C)C)NC(=O)[C@H](CC(=O)O)NC(=O)[C@H](CO)NC(=O)[C@@H](NC(=O)[C@H](Cc1ccccc1)NC(=O)[C@@H](NC(=O)CNC(=O)[C@H](Cc1c[nH]cn1)NC(=O)C(C)(C)NC(=O)[C@@H](N)Cc1ccc(O)cc1)[C@@H](C)O)[C@@H](C)O)[C@@H](C)CC)C(=O)N[C@@H](CCC(=O)O)C(=O)N[C@@H](CCCCN)C(=O)N[C@@H](CCCNC(=N)N)C(=O)N[C@@H](C)C(=O)N[C@@H](C)C(=O)NC(C)(C)C(=O)N[C@@H](CCC(=O)O)C(=O)N[C@@H](Cc1ccccc1)C(=O)N[C@H](C(=O)N[C@@H](CCC(=O)O)C(=O)N[C@@H](Cc1c[nH]c2ccccc12)C(=O)N[C@@H](CC(C)C)C(=O)N[C@@H](CCCCN)C(=O)N[C@@H](CC(N)=O)C(=O)N[C@H](C(=O)NCC(=O)N1CCC[C@H]1C(=O)N[C@@H](CO)C(=O)N[C@@H](CO)C(=O)NCC(=O)N[C@@H](C)C(=O)N1CCC[C@H]1C(=O)N1CCC[C@H]1C(=O)N1CCC[C@H]1C(=O)N[C@@H](CO)C(N)=O)[C@@H](C)O)[C@@H](C)CC)C(=O)O) [exendin-4 peptide analogue SEQ ID NO: 18] | 0.0183 nM | 0.0095 nM | 0.0095 nM
2 | Y[Aib]QGTFTSDLSIQK([γGlu-Palmitoyl])EKRAA[Aib]EFIEWLKA[dA]GPSSGAPPPS-NH2 (N-terminus assumed; SMILES CCCCCCCCCCCCCCCC(=O)N[C@@H](CCC(=O)NCCCC[C@H](NC(=O)[C@H](CCC(N)=O)NC(=O)[C@@H](NC(=O)[C@H](CO)NC(=O)[C@H](CC(C)C)NC(=O)[C@H](CC(=O)O)NC(=O)[C@H](CO)NC(=O)[C@@H](NC(=O)[C@H](Cc1ccccc1)NC(=O)[C@@H](NC(=O)CNC(=O)[C@H](CCC(N)=O)NC(=O)C(C)(C)NC(=O)[C@@H](N)Cc1ccc(O)cc1)[C@@H](C)O)[C@@H](C)O)[C@@H](C)CC)C(=O)N[C@@H](CCC(=O)O)C(=O)N[C@@H](CCCCN)C(=O)N[C@@H](CCCNC(=N)N)C(=O)N[C@@H](C)C(=O)N[C@@H](C)C(=O)NC(C)(C)C(=O)N[C@@H](CCC(=O)O)C(=O)N[C@@H](Cc1ccccc1)C(=O)N[C@H](C(=O)N[C@@H](CCC(=O)O)C(=O)N[C@@H](Cc1c[nH]c2ccccc12)C(=O)N[C@@H](CC(C)C)C(=O)N[C@@H](CCCCN)C(=O)N[C@@H](C)C(=O)N[C@H](C)C(=O)NCC(=O)N1CCC[C@H]1C(=O)N[C@@H](CO)C(=O)N[C@@H](CO)C(=O)NCC(=O)N[C@@H](C)C(=O)N1CCC[C@H]1C(=O)N1CCC[C@H]1C(=O)N1CCC[C@H]1C(=O)N[C@@H](CO)C(N)=O)[C@@H](C)CC)C(=O)O) [exendin-4 peptide analogue SEQ ID NO: 14] | 0.0065 nM | 0.0062 nM | 0.0623 nM
3 | Y[Aib]EGTFTSDLSKQK([γGlu-Palmitoyl])EKEAA[Aib]EFIEWLKAGGPSSGAPPPS-NH2 (N-terminus assumed; SMILES CCCCCCCCCCCCCCCC(=O)N[C@@H](CCC(=O)NCCCC[C@H](NC(=O)[C@H](CCC(N)=O)NC(=O)[C@H](CCCCN)NC(=O)[C@H](CO)NC(=O)[C@H](CC(C)C)NC(=O)[C@H](CC(=O)O)NC(=O)[C@H](CO)NC(=O)[C@@H](NC(=O)[C@H](Cc1ccccc1)NC(=O)[C@@H](NC(=O)CNC(=O)[C@H](CCC(=O)O)NC(=O)C(C)(C)NC(=O)[C@@H](N)Cc1ccc(O)cc1)[C@@H](C)O)[C@@H](C)O)C(=O)N[C@@H](CCC(=O)O)C(=O)N[C@@H](CCCCN)C(=O)N[C@@H](CCC(=O)O)C(=O)N[C@@H](C)C(=O)N[C@@H](C)C(=O)NC(C)(C)C(=O)N[C@@H](CCC(=O)O)C(=O)N[C@@H](Cc1ccccc1)C(=O)N[C@H](C(=O)N[C@@H](CCC(=O)O)C(=O)N[C@@H](Cc1c[nH]c2ccccc12)C(=O)N[C@@H](CC(C)C)C(=O)N[C@@H](CCCCN)C(=O)N[C@@H](C)C(=O)NCC(=O)NCC(=O)N1CCC[C@H]1C(=O)N[C@@H](CO)C(=O)N[C@@H](CO)C(=O)NCC(=O)N[C@@H](C)C(=O)N1CCC[C@H]1C(=O)N1CCC[C@H]1C(=O)N1CCC[C@H]1C(=O)N[C@@H](CO)C(N)=O)[C@@H](C)CC)C(=O)O) [exendin-4 peptide analogue SEQ ID NO: 17] | 0.0052 nM | 0.0083 nM | 21 nM
4 | Y[Aib]QGTFTSDLSIQK([γGlu-Palmitoyl])EKRYA[Aib]EFIEWLKNTGPSSGAPPPS-NH2 (N-terminus assumed; SMILES CCCCCCCCCCCCCCCC(=O)N[C@@H](CCC(=O)NCCCC[C@H](NC(=O)[C@H](CCC(N)=O)NC(=O)[C@@H](NC(=O)[C@H](CO)NC(=O)[C@H](CC(C)C)NC(=O)[C@H](CC(=O)O)NC(=O)[C@H](CO)NC(=O)[C@@H](NC(=O)[C@H](Cc1ccccc1)NC(=O)[C@@H](NC(=O)CNC(=O)[C@H](CCC(N)=O)NC(=O)C(C)(C)NC(=O)[C@@H](N)Cc1ccc(O)cc1)[C@@H](C)O)[C@@H](C)O)[C@@H](C)CC)C(=O)N[C@@H](CCC(=O)O)C(=O)N[C@@H](CCCCN)C(=O)N[C@@H](CCCNC(=N)N)C(=O)N[C@@H](Cc1ccc(O)cc1)C(=O)N[C@@H](C)C(=O)NC(C)(C)C(=O)N[C@@H](CCC(=O)O)C(=O)N[C@@H](Cc1ccccc1)C(=O)N[C@H](C(=O)N[C@@H](CCC(=O)O)C(=O)N[C@@H](Cc1c[nH]c2ccccc12)C(=O)N[C@@H](CC(C)C)C(=O)N[C@@H](CCCCN)C(=O)N[C@@H](CC(N)=O)C(=O)N[C@H](C(=O)NCC(=O)N1CCC[C@H]1C(=O)N[C@@H](CO)C(=O)N[C@@H](CO)C(=O)NCC(=O)N[C@@H](C)C(=O)N1CCC[C@H]1C(=O)N1CCC[C@H]1C(=O)N1CCC[C@H]1C(=O)N[C@@H](CO)C(N)=O)[C@@H](C)O)[C@@H](C)CC)C(=O)O) [exendin-4 peptide analogue SEQ ID NO: 13] | 0.0141 nM | 0.0263 nM | 0.0202 nM
5 | Y[Aib]QGTFTSDLSIQK([γGlu-Palmitoyl])EQRAA[Aib]EFIEWLKNTGPSSGAPPPS-NH2 (N-terminus assumed; SMILES CCCCCCCCCCCCCCCC(=O)N[C@@H](CCC(=O)NCCCC[C@H](NC(=O)[C@H](CCC(N)=O)NC(=O)[C@@H](NC(=O)[C@H](CO)NC(=O)[C@H](CC(C)C)NC(=O)[C@H](CC(=O)O)NC(=O)[C@H](CO)NC(=O)[C@@H](NC(=O)[C@H](Cc1ccccc1)NC(=O)[C@@H](NC(=O)CNC(=O)[C@H](CCC(N)=O)NC(=O)C(C)(C)NC(=O)[C@@H](N)Cc1ccc(O)cc1)[C@@H](C)O)[C@@H](C)O)[C@@H](C)CC)C(=O)N[C@@H](CCC(=O)O)C(=O)N[C@@H](CCC(N)=O)C(=O)N[C@@H](CCCNC(=N)N)C(=O)N[C@@H](C)C(=O)N[C@@H](C)C(=O)NC(C)(C)C(=O)N[C@@H](CCC(=O)O)C(=O)N[C@@H](Cc1ccccc1)C(=O)N[C@H](C(=O)N[C@@H](CCC(=O)O)C(=O)N[C@@H](Cc1c[nH]c2ccccc12)C(=O)N[C@@H](CC(C)C)C(=O)N[C@@H](CCCCN)C(=O)N[C@@H](CC(N)=O)C(=O)N[C@H](C(=O)NCC(=O)N1CCC[C@H]1C(=O)N[C@@H](CO)C(=O)N[C@@H](CO)C(=O)NCC(=O)N[C@@H](C)C(=O)N1CCC[C@H]1C(=O)N1CCC[C@H]1C(=O)N1CCC[C@H]1C(=O)N[C@@H](CO)C(N)=O)[C@@H](C)O)[C@@H](C)CC)C(=O)O) [exendin-4 peptide analogue SEQ ID NO: 15] | 0.0069 nM | 0.0114 nM | 0.054 nM
6 | Y[Aib]EGTFTSDLSIQK([γGlu-Stearoyl])ESKAA[Aib]EFIEWLKAGGPSSGAPPPSK-NH2 (N-terminus assumed; SMILES CCCCCCCCCCCCCCCCCC(=O)N[C@@H](CCC(=O)NCCCC[C@H](NC(=O)[C@H](CCC(N)=O)NC(=O)[C@@H](NC(=O)[C@H](CO)NC(=O)[C@H](CC(C)C)NC(=O)[C@H](CC(=O)O)NC(=O)[C@H](CO)NC(=O)[C@@H](NC(=O)[C@H](Cc1ccccc1)NC(=O)[C@@H](NC(=O)CNC(=O)[C@H](CCC(=O)O)NC(=O)C(C)(C)NC(=O)[C@@H](N)Cc1ccc(O)cc1)[C@@H](C)O)[C@@H](C)O)[C@@H](C)CC)C(=O)N[C@@H](CCC(=O)O)C(=O)N[C@@H](CO)C(=O)N[C@@H](CCCCN)C(=O)N[C@@H](C)C(=O)N[C@@H](C)C(=O)NC(C)(C)C(=O)N[C@@H](CCC(=O)O)C(=O)N[C@@H](Cc1ccccc1)C(=O)N[C@H](C(=O)N[C@@H](CCC(=O)O)C(=O)N[C@@H](Cc1c[nH]c2ccccc12)C(=O)N[C@@H](CC(C)C)C(=O)N[C@@H](CCCCN)C(=O)N[C@@H](C)C(=O)NCC(=O)NCC(=O)N1CCC[C@H]1C(=O)N[C@@H](CO)C(=O)N[C@@H](CO)C(=O)NCC(=O)N[C@@H](C)C(=O)N1CCC[C@H]1C(=O)N1CCC[C@H]1C(=O)N1CCC[C@H]1C(=O)N[C@@H](CO)C(=O)N[C@@H](CCCCN)C(N)=O)[C@@H](C)CC)C(=O)O) [exendin-4 peptide analogue SEQ ID NO: 16] | 0.007 nM | 0.0156 nM | 17 nM
